Experimental data: patent US12698494
Numbering of substitutions follows the chain as printed. Names may count otherwise.

T1: FRETS-VWF73 fluorogenic substrate, P04275
T1 chain: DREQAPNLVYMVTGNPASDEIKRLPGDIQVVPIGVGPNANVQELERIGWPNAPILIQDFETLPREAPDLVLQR

B1: ADAMTS13 variant NGLY7 (664EYGNLT669 to 664ENVTLT669; glycan shift from N667 to Y665) (protein)
chain: AAGGILHLELLVAVGPDVFQAHQEDTERYVLTNLNIGAELLRDPSLGAQFRVHLVKMVILTEPEGAPNITANLTSSLLSVCGWSQTINPEDDTDPGHADLVLYITRFDLELPDGNRQVRGVTQLGGACSPTWSCLITEDTGFDLGVTIAHEIGHSFGLEHDGAPGSGCGPSGHVMASDGAAPRAGLAWSPCSRRQLLSLLSAGRARCVWDPPRPQPGSAGHPPDAQPGLYYSANEQCRVAFGPKAVACTFAREHLDMCQALSCHTDPLDQSSCSRLLVPLLDGTECGVEKWCSKGRCRSLVELTPIAAVHGRWSSWGPRSPCSRSCGGGVVTRRRQCNNPRPAFGGRACVGADLQAEMCNTQACEKTQLEFMSQQCARTDGQPLRSSPGGASFYHWGAAVPHSQGDALCRHMCRAIGESFIMKRGDSFLDGTRCMPSGPREDGTLSLCVSGSCRTFGCDGRMDSQQVWDRCQVCGGDNSTCSPRKGSFTAGRAREYVTFLTVTPNLTSVYIANHRPLFTHLAVRIGGRYVVAGKMSISPNTTYPSLLEDGRVEYRVALTEDRLPRLEEIRIWGPLQEDADIQVYRRYGEENVTLTRPDITFTYFQPKPRQAWVWAAVRGPCSVSCGAGLRWVNYSCLDQARKELVETVQCQGSQQPPAWPEACVLEPCPPYWAVGDFGPCSASCGGGLRERPVRCVEAQGSLLKTLPPARCRAGAQQPAVALETCNPQPCPARWEVSEPSSCTSAGGAGLALENETCVPGADGLEAPVTEGPGSVDEKLPAPEPCVGMSCPPGWGHLDATSAGEKAPSPWGSIRTGAQAAHVWTPAAGSCSVSCGRGLMELRFLCMDSALRVPVQEELCGLASKPGSRREVCQAVPCPARWQYKLAACSVSCGRGVVRRILYCARAHGEDDGEEILLDTQCQGLPRPEPQEACSLEPCPPRWKVMSLGPCSASCGLGTARRSVACVQLDQGQDVEVDEAACAALVRPEASVPCLIADCTYRWHVGTWMECSVSCGDGIQRRRDTCLGPQAQAPVPADFCQHLPKPVTVRGCWAGPCVGQGTPSLVPHEEAAAPGRTTATPAGASLEWSQARGLLFSPAPQPRRLLPGPQENSVQSSACGRQHLEPTGTIDMRGPGQADCAVAIGRPLGEVVTLRVLESSLNCSAGDMLLLWGRLTWRKMCRKLLDMTFSSKTNTLVVRQRCGRPGGGVLLRYGSQLAPETFYRECDMQLFGPWGEIVSPSLSPATSNAGGCRLFINVAPHARIAIHALATNMGAGTEGANASYILIRDTHSLRTTAFHGQQVLYWESESSQAEMEFSEGFLKAQASLRGQYWTLQSWVPEMQDPQSWKGKEGT
B2: ADAMTS13 variant NGLY3 + R568A/Y665A (protein)
chain: B1 chain with R494A, K534N, N591A, V592G, T593N
B3: ADAMTS13 variant NGLY3 + NGLY7 (607GNMSI611/664ENVTLT669) (protein)
chain: B1 chain with K534N
B4: ADAMTS13 variant L591A/R636A/L637A/L668A (protein)
chain: B1 chain with L517A, R562A, L563A, N591Y, V592G, T593N, L594A
B5: ADAMTS13 variant R568A/Y665A (protein)
chain: B1 chain with R494A, N591A, V592G, T593N
B6: ADAMTS13 variant NGLY8 (667NLTRP671 to 667LNVTA671; glycan shift from N667 to L668) (protein)
chain: B1 chain with N591Y, V592G, T593L, L594N, T595V, R596T, P597A
B7: ADAMTS13 variant NGLY3 plus L591A/R636A/L637A/L668A (protein)
chain: B1 chain with L517A, K534N, R562A, L563A, N591Y, V592G, T593N, L594A
B8: ADAMTS13 variant NGLY3 + NGLY8 (607GNMSI611/667LNVTA671) (protein)
chain: B1 chain with K534N, N591Y, V592G, T593L, L594N, T595V, R596T, P597A

Columns and labels:
[1] = target: T1, FRETS-VWF73 fluorogenic substrate, …
[2] = target: Von Willebrand Factor (VWF) multimers, P04275

| Protein | Activity level (% relative to wild type ADAMTS13) VWFFRETS73 (% relative to wild type ADAMTS13) [1] | Ability to process VWF multimers under denaturing conditions [2] | vortex assay: processing of VWF multimers under shear stress [2] | FRETS-VWF73 activity relative to wild-type ADAMTS13 (text value, differs from Table 4) [1] |
| --- | --- | --- | --- | --- |
| B1 | 125 | +++++ | NGLY7 was clearly capable of processing the large VWF multimers | – |
| B2 | 120 | ++ | Combinations of NGLY3 plus L591A/R636A/L637A/L668A and NGLY3 plus R568A/Y665A efficiently processed VWF multimers | – |
| B3 | 135 | +++++ | combination of NGLY3/NGLY7 retained proteolytic activity towards multimeric VWF | NGLY3 plus NGLY7 was 125% active when compared to the wild type |
| B4 | 90 | ++ | the proteolytic activity of R568A/Y665A and the L591A/R636A/L637A/L668A variants were reduced when compared to wild type ADAMTS13 | – |
| B5 | 120 | ++ | the proteolytic activity of R568A/Y665A and the L591A/R636A/L637A/L668A variants were reduced when compared to wild type ADAMTS13 | – |
| B6 | 76 | ++ | NGLY8 displayed a reduced ability to process VWF multimers when compared to NGLY3 and NGLY7 | NGLY8 was 75% active when compared to wild-type ADAMTS13 |
| B7 | 95 | ++ | Combinations of NGLY3 plus L591A/R636A/L637A/L668A and NGLY3 plus R568A/Y665A efficiently processed VWF multimers | – |
| B8 | 120 | ++ | Combinations of NGLY3/NGLY8 also revealed a reduced ability to process VWF multimers | NGLY3 plus NGLY8 was 75% active when compared to wild type ADAMTS13 |
